The target of one assay is T1, CD3 (human, UniProt P07766 23-207).
T1 construct: whole, on cells; CD3 is a multi-chain complex; also called CD3ε; CD3 on the surface of primary T cells
The assay is described as follows: cell binding assay on isolated primary T cells.

The target of another assay is T2, B7H3 (UniProt Q5ZPR3 29-534, limits assumed).
T2 construct: whole, on cells; also called CD276
T2 sequence (looked up): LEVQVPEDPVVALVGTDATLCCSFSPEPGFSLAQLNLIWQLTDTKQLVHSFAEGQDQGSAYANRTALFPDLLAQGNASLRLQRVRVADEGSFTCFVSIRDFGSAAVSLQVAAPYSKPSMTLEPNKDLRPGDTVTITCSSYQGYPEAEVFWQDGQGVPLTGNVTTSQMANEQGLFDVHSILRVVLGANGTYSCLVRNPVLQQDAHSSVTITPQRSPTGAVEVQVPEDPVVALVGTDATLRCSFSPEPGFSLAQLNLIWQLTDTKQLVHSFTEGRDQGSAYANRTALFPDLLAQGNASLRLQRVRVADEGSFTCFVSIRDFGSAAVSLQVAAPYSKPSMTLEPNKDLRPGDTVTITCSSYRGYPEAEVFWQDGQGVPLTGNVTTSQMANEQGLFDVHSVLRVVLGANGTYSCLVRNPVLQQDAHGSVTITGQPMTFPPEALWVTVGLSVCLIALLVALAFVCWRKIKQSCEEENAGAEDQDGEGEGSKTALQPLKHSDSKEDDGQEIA
The assay is described as follows: cell binding assay on A375 cells.

The record followed here is patent US20200048350A1 (INHIBRX BIOSCIENCES, published 2020).

T1 sequence (P07766 23-207): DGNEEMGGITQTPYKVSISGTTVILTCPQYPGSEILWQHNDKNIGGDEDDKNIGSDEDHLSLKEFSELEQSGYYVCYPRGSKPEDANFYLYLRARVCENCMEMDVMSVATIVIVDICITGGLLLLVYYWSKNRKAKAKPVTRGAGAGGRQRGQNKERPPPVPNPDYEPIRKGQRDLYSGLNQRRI

B1: cx5187 (other)
chain 1: EVQLVESGGGEVQPGGSLRLSCAASGFSFSSNVMMWVRQAPGKGLEWVSTIYSSGTGTFYAESVKGRFTISRDNAKNTLYLQMSSLRPEDTAVYYCATSGPVRGWGPRSQGTLVTVKPPGGGGDKTHTCPPCPAPGGPSVFLFPPKPKDTLMISRTPEVTCVVVDVSHEDPEVKFNWYVDGVEVHNAKTKPREEQYNSTYRVVSVLTVLHQDWLNGKEYKCKVSNKALPAPIEKTISKAKGQPREPQVYTLPPCRDELTKNQVSLWCLVKGFYPSDIAVEWESNGQPENNYKTTPPVLDSDGSFFLYSKLTVDKSRWQQGNVFSCSVMHEALHNHYTQKSLSLSPTGGGGGSGGGGGSGGGGGSEVQLVESGGGLVQPGGSLRLSCAASGFTFNTYAMNWVRQAPGKCLEWVARIRSKYNNYATYYADSVKGRFTISRDDAKNTLYLQMSSLRAEDTAVYYCVRHGNFGNSYVSWFAYWGQGTLVTVKPGGGGEVQLVESGGGEVQPGGSLRLSCAASGFTFSSYHMSWFRQAPGKQREPVATSHHGGTTNYAGSVKGRFTISRDNAKNTVYLQMNTLRAEDTAVYYCKADHGYQGRGYWGQGTLVTVKP
chain 2: DKTHTCPPCPAPGGPSVFLFPPKPKDTLMISRTPEVTCVVVDVSHEDPEVKFNWYVDGVEVHNAKTKPREEQYNSTYRVVSVLTVLHQDWLNGKEYKCKVSNKALPAPIEKTISKAKGQPREPQVCTLPPSRDELTKNQVSLSCAVKGFYPSDIAVEWESNGQPENNYKTTPPVLDSDGSFFLVSKLTVDKSRWQQGNVFSCSVMHEALHNRYTQKSLSLSPTGGGGGSGGGGGSGGGGGSQAVVTQEPSLTVSPGGTVTLTCGSSTGAVTTSNYANWVQQKPGQAFRGLIGGTNKRAPGVPARFSGSLLGGKAALTISGAQPEDEADYYCALWYSNHWVFGCGTKLEIKGGGGEVQLLESGGGEVQPGGSLRLSCAASGFSFSINAMGWYRQAPGKRREFVAAIESGRNTVYAESVKGRFTISRDNAKNTVYLQMSSLRAEDTAVYYCGLLKGNRVVSPSVAYWGQGTLVTVKP
notes: hole 91, 93 or 296, differing at the C-terminal end; the first is written; also called bivalent, bi-epitopic B7H3-targeted constrained CD3 engaging construct; Knob-VH
In the case of B1, the binding result with CD3 is “no binding”; with B7H3 it was “binds”.

B2: cx5965 (other)
chain 1: EVQLVESGGGEVQPGGSLRLSCAASGFSFSSNVMMWVRQAPGKGLEWVSTIYSSGTGTFYAESVKGRFTISRDNAKNTLYLQMSSLRPEDTAVYYCATSGPVRGWGPRSQGTLVTVKPPGGGGDKTHTCPPCPAPGGPSVFLFPPKPKDTLMISRTPEVTCVVVDVSHEDPEVKFNWYVDGVEVHNAKTKPREEQYNSTYRVVSVLTVLHQDWLNGKEYKCKVSNKALPAPIEKTISKAKGQPREPQVYTLPPCRDELTKNQVSLWCLVKGFYPSDIAVEWESNGQPENNYKTTPPVLDSDGSFFLYSKLTVDKSRWQQGNVFSCSVMHEALHNHYTQKSLSLSPTGGGGGSGGGGGSGGGGGSEVQLVESGGGLVQPGGSLRLSCAASGFTFNTYAMNWVRQAPGKCLEWVARIRSKYNNYATYYADSVKGRFTISRDDAKNTLYLQMSSLRAEDTAVYYCVRHGNFGNSYVSWFAYWGQGTLVTVKP
chain 2: DKTHTCPPCPAPGGPSVFLFPPKPKDTLMISRTPEVTCVVVDVSHEDPEVKFNWYVDGVEVHNAKTKPREEQYNSTYRVVSVLTVLHQDWLNGKEYKCKVSNKALPAPIEKTISKAKGQPREPQVCTLPPSRDELTKNQVSLSCAVKGFYPSDIAVEWESNGQPENNYKTTPPVLDSDGSFFLVSKLTVDKSRWQQGNVFSCSVMHEALHNRYTQKSLSLSPTGGGGGSGGGGGSGGGGGSQAVVTQEPSLTVSPGGTVTLTCGSSTGAVTTSNYANWVQQKPGQAFRGLIGGTNKRAPGVPARFSGSLLGGKAALTISGAQPEDEADYYCALWYSNHWVFGCGTKLEIKGGGGEVQLLESGGGEVQPGGSLRLSCAASGFSFSINAMGWYRQAPGKRREFVAAIESGRNTVYAESVKGRFTISRDNAKNTVYLQMSSLRAEDTAVYYCGLLKGNRVVSPSVAYWGQGTLVTVKP
notes: Fc alternatives printed; first written; Short peptide linkers only 'e.g.'; also called monovalent B7H3-targeting constrained CD3 engaging construct (N-terminal sdAb)
On to B2, for which the values for the binding result with CD3 and with B7H3 were “no binding” and “binds”, respectively.

B3: cx5873 (other)
chain 1: DKTHTCPPCPAPGGPSVFLFPPKPKDTLMISRTPEVTCVVVDVSHEDPEVKFNWYVDGVEVHNAKTKPREEQYNSTYRVVSVLTVLHQDWLNGKEYKCKVSNKALPAPIEKTISKAKGQPREPQVYTLPPCRDELTKNQVSLWCLVKGFYPSDIAVEWESNGQPENNYKTTPPVLDSDGSFFLYSKLTVDKSRWQQGNVFSCSVMHEALHNHYTQKSLSLSPTGGGGGSGGGGGSGGGGGSEVQLVESGGGLVQPGGSLRLSCAASGFTFNTYAMNWVRQAPGKCLEWVARIRSKYNNYATYYADSVKGRFTISRDDAKNTLYLQMSSLRAEDTAVYYCVRHGNFGNSYVSWFAYWGQGTLVTVKPGGGGEVQLVESGGGEVQPGGSLRLSCAASGFTFSSYHMSWFRQAPGKQREPVATSHHGGTTNYAGSVKGRFTISRDNAKNTVYLQMNTLRAEDTAVYYCKADHGYQGRGYWGQGTLVTVKP
chain 2: DKTHTCPPCPAPGGPSVFLFPPKPKDTLMISRTPEVTCVVVDVSHEDPEVKFNWYVDGVEVHNAKTKPREEQYNSTYRVVSVLTVLHQDWLNGKEYKCKVSNKALPAPIEKTISKAKGQPREPQVCTLPPSRDELTKNQVSLSCAVKGFYPSDIAVEWESNGQPENNYKTTPPVLDSDGSFFLVSKLTVDKSRWQQGNVFSCSVMHEALHNRYTQKSLSLSPTGGGGGSGGGGGSGGGGGSQAVVTQEPSLTVSPGGTVTLTCGSSTGAVTTSNYANWVQQKPGQAFRGLIGGTNKRAPGVPARFSGSLLGGKAALTISGAQPEDEADYYCALWYSNHWVFGCGTKLEIKGGGGEVQLLESGGGEVQPGGSLRLSCAASGFSFSINAMGWYRQAPGKRREFVAAIESGRNTVYAESVKGRFTISRDNAKNTVYLQMSSLRAEDTAVYYCGLLKGNRVVSPSVAYWGQGTLVTVKP
notes: Fc alternatives printed; first written; Short peptide linkers only 'e.g.'; also called monovalent B7H3-targeting constrained CD3 engaging construct (C-terminal sdAb)
B3: the results for the binding result with CD3 and with B7H3 were “no binding” and “binds”, respectively.

B4: cx5823 (other)
chain 1: EVQLVESGGGEVQPGGSLRLSCAASGFSFSSNVMMWVRQAPGKGLEWVSTIYSSGTGTFYAESVKGRFTISRDNAKNTLYLQMSSLRPEDTAVYYCATSGPVRGWGPRSQGTLVTVKPPGGGGDKTHTCPPCPAPGGPSVFLFPPKPKDTLMISRTPEVTCVVVDVSHEDPEVKFNWYVDGVEVHNAKTKPREEQYNSTYRVVSVLTVLHQDWLNGKEYKCKVSNKALPAPIEKTISKAKGQPREPQVYTLPPCRDELTKNQVSLWCLVKGFYPSDIAVEWESNGQPENNYKTTPPVLDSDGSFFLYSKLTVDKSRWQQGNVFSCSVMHEALHNHYTQKSLSLSPGGGGGGSGGGGGSGGGGGSEVQLVESGGGLVQPGGSLRLSCAASGFTFNTYAMNWVRQAPGKCLEWVARIRSKYNNYATYYADSVKGRFTISRDDAKNTLYLQMSSLRAEDTAVYYCVRHGNFGNSYVSWFAYWGQGTLVTVKPGGGGEVQLVESGGGEVQPGGSLRLSCAASGFTFSSYHMSWFRQAPGKQRELVATSHHGGTTNYAGSVKGRFTISRDNAKNTVYLQMNTLRAEDTAVYYCKADHGYQGRGYWGQGTLVTVKP
chain 2: DKTHTCPPCPAPGGPSVFLFPPKPKDTLMISRTPEVTCVVVDVSHEDPEVKFNWYVDGVEVHNAKTKPREEQYNSTYRVVSVLTVLHQDWLNGKEYKCKVSNKALPAPIEKTISKAKGQPREPQVCTLPPSRDELTKNQVSLSCAVKGFYPSDIAVEWESNGQPENNYKTTPPVLDSDGSFFLVSKLTVDKSRWQQGNVFSCSVMHEALHNRYTQKSLSLSPGGGGGGSGGGGGSGGGGGSQAVVTQEPSLTVSPGGTVTLTCGSSTGAVTTSNYANWVQQKPGQAFRGLIGGTNKRAPGVPARFSGSLLGGKAALTISGAQPEDEADYYCALWYSNHWVFGCGTKLEIKGGGGEVQLLESGGGEVQPGGSLRLSCAASGFSFSINAMGWYRQAPGKRREFVAAIESGRNTVYAESVKGRFTISRDNAKNTVYLQMSSLRAEDTAVYYCGLLKGNRVVSPSVAYWGQGTLVTVKP
notes: Short peptide linkers only 'e.g.'; also called bivalent B7H3-targeting constrained CD3 engaging construct
For B4, the binding result in the assay with CD3 is “no binding”.
